US20080096222

What was measured:
[1] = target: H3-GST with the mutation K4A
[2] = target: H3-GST with the mutation R2A

B1: myc-tagged human haspin (protein)
chain: AASLPGPGSRLFRTYGAADGRRQRRPGREAAQWFPPQDRRRFFNSSGSSDASIGDPSQSDDPDDPDDPDFPGSPVRRRRRCPGGRVPKDRPSLTVTPKRWKLRARPSLTVTPRRLGLRARPPQKCSTPCGPLRLPPFPSRDSGRLSPDLSVCGQPRDGDELGISASLFSSLASPCPGSPTPRDSVISIGTSACLVAASAVPSDLHLPEVSLDRASLPCSQEEATGGAKDTRMVHQTRASLRSVLFGLMNSGTPEDSEFRADGKNMRESCCKRKLVVGNGPEGPGLSSTGKRRATGQDSCQERGLQEAVRREHQEASVPKGRIVPRGTDRLERTRSSRKSKHQEATETSLLHSHRFKKGQKLGKDSFPTQDLTPLQNACFWTKTRASFSFHKKKIVTDVSEVCSIYTTATSLSGSLLSECSNRPVMNRTSGAPSSWHSSSMYLLSPLNTLSISNKKASDAEKVYGECSQKGPVPFSHCLPTEKLQRCEKIGEGVFGEVFQTIADHTPVAIKIIAIEGPDLVNGSHQKTFEEILPEIIISKELSLLSGEVCNRTEGFIGLNSVHCVQGSYPPLLLKAWDHYNSTKGSANDRPDFFKDDQLFIVLEFEFGGIDLEQMRTKLSSLATAKSILHQLTASLAVAEASLRFEHRDLHWGNVLLKKTSLKKLHYTLNGKSSTIPSCGLQVSIIDYTLSRLERDGIVVFCDVSMDEDLFTGDGDYQFDIYRLMKKENNNRWGEYHPYSNVLWLHYLTDKMLKQMTFKTKCNTPAMKQIKRKIQEFHRTMLNFSSATDLLCQHSLFK
B1 was tested, and the “phosphorylation of H3-GST by haspin (in vitro kinase assay)” value [1] was “substantially reduced phosphorylation of H3-GST by haspin” and the “phosphorylation of H3-GST by haspin (in vitro kinase assay)” value [2] was “substantially reduced phosphorylation of H3-GST by haspin”.
